Measured values published in PMC9482650, “Quantitative fragmentomics allow affinity mapping of interactomes” (Nature Communications, 2022).

T1: SIPA1L2, Q9P2F8
T1 sequence (Q9P2F8 945-1036, limits assumed, looked up): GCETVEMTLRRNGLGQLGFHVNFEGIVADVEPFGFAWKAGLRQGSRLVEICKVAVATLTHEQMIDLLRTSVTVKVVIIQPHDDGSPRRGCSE

T2: MPDZ_10, O75970
T2 sequence (O75970 1624-1722, limits assumed, looked up): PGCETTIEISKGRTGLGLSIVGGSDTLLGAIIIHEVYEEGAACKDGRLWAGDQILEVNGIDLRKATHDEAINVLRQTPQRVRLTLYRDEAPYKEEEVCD

T3: LNX2_2, Q8N448
T3 sequence (Q8N448 334-432, limits assumed, looked up): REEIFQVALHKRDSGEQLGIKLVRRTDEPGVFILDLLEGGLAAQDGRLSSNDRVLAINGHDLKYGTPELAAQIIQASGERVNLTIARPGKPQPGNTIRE

T4: LRRC7, Q96NW7
T4 sequence (Q96NW7 1440-1537, limits assumed, looked up): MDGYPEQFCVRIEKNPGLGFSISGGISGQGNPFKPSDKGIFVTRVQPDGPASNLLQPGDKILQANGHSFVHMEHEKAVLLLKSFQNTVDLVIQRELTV

T5: GRIP1_4, Q9Y3R0
T5 sequence (Q9Y3R0 467-571, limits assumed, looked up): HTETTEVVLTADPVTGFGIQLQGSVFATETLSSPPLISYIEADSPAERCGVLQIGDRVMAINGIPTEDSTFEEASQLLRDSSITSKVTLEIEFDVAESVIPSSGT

T6: TIAM2, Q8IVF5
T6 sequence (Q8IVF5 885-986, limits assumed, looked up): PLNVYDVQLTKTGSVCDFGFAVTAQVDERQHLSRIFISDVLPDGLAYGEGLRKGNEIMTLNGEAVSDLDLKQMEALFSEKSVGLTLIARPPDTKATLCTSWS

T7: PCLO, Q9Y6V0
T7 sequence (Q9Y6V0 4491-4600, limits assumed, looked up): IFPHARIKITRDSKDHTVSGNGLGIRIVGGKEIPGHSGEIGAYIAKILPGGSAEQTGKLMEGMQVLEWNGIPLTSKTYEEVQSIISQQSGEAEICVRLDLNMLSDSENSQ

T8: PARD3B_1, Q8TEW8
T8 sequence (Q8TEW8 196-299, limits assumed, looked up): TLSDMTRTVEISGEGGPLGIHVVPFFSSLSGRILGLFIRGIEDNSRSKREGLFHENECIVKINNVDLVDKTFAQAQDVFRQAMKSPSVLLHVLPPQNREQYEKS

T9: DLG3_1, Q92796
T9 sequence (Q92796 125-227, limits assumed, looked up): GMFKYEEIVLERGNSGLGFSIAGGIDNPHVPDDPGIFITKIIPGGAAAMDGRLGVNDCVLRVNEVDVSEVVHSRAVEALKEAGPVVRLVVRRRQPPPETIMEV

T10: GRIP1_7, Q9Y3R0
T10 sequence (Q9Y3R0 999-1096, limits assumed, looked up): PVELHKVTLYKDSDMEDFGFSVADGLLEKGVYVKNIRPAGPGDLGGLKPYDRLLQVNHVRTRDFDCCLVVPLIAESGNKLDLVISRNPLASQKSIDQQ

T11: DFNB31_3, Q9P202
T11 sequence (Q9P202 811-907, limits assumed, looked up): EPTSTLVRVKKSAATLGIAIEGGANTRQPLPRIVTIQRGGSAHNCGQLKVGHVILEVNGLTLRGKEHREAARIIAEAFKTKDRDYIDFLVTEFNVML


Assays:
Assay in all cases: holdup assay
Parameters in all cases: key: below the threshold = too weak to quantify, mostly under pKd 3.1 to 4
Details in all cases: plain residues with an end cap or a label only (N-terminal biotin on a linker: ado-ado)
DLG4_2, P78352 = target: DLG4_2, P78352
Chain of DLG4_2, P78352 (P78352 155-259): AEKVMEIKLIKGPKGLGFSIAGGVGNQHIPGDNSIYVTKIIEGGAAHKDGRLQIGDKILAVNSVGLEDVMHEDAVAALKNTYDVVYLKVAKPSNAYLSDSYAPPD

MAGI2_3, Q86UL8 = target: MAGI2_3, Q86UL8
Chain of MAGI2_3, Q86UL8 (Q86UL8 600-682): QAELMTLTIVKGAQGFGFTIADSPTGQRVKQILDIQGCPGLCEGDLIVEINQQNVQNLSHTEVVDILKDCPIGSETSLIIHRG

SCRIB_2, Q14160 = target: SCRIB_2, Q14160
Chain of SCRIB_2, Q14160 (Q14160 857-960): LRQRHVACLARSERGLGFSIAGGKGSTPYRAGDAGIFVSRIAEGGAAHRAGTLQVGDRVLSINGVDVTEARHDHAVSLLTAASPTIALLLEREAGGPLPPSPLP

SIPA1L2, Q9P2F8 = target: T1, SIPA1L2, Q9P2F8
HTRA1, Q92743 = target: HTRA1, Q92743
Chain of HTRA1, Q92743 (Q92743 360-477): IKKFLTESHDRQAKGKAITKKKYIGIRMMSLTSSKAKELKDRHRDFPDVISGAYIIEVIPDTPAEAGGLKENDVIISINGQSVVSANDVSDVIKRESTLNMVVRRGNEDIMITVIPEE

MPDZ_10, O75970 = target: T2, MPDZ_10, O75970
LAP2, Q96RT1 = target: LAP2, Q96RT1
Chain of LAP2, Q96RT1 (Q96RT1 other isoform, or with tags, fused parts or gaps): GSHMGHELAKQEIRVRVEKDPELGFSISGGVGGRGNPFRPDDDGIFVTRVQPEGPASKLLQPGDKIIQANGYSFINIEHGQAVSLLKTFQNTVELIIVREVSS

LNX2_2, Q8N448 = target: T3, LNX2_2, Q8N448
LRRC7, Q96NW7 = target: T4, LRRC7, Q96NW7
GRIP1_4, Q9Y3R0 = target: T5, GRIP1_4, Q9Y3R0
NOS1, P29475 = target: NOS1, P29475
Chain of NOS1, P29475 (P29475 9-101): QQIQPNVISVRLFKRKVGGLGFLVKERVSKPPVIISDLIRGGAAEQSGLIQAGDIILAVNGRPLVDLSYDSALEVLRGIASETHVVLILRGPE

Inadl_1, Q8NI35 = target: Inadl_1, Q8NI35
Chain of Inadl_1, Q8NI35 (Q8NI35 113-229): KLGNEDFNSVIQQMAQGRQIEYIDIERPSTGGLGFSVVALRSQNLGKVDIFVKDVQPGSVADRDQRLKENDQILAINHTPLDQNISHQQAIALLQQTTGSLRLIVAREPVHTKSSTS

TIAM2, Q8IVF5 = target: T6, TIAM2, Q8IVF5
PDLIM1, O00151 = target: PDLIM1, O00151
Chain of PDLIM1, O00151 (O00151 1-87): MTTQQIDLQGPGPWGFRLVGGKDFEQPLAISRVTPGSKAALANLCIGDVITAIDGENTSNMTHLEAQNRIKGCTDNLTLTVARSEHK

AHNAK1, Q09666 = target: AHNAK1, Q09666
Chain of AHNAK1, Q09666 (Q09666 4-100): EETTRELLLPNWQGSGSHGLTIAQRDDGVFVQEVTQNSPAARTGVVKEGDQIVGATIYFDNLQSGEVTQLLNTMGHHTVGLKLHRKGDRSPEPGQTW

GRID2IP_1, A4D2P6 = target: GRID2IP_1, A4D2P6
Chain of GRID2IP_1, A4D2P6 (A4D2P6 1-87): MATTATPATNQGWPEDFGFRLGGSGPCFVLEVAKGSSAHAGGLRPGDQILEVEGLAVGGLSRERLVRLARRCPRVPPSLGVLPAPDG

PCLO, Q9Y6V0 = target: T7, PCLO, Q9Y6V0
NHERF4_2, Q86UT5 = target: NHERF4_2, Q86UT5
Chain of NHERF4_2, Q86UT5 (Q86UT5 220-308): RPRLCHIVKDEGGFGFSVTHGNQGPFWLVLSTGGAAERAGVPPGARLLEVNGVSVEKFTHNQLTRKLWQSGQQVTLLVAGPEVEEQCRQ

TJP1_2, Q07157 = target: TJP1_2, Q07157
Chain of TJP1_2, Q07157 (Q07157 181-274): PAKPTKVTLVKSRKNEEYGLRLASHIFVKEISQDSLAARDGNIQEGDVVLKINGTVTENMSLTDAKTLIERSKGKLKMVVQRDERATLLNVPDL

DLG2_2, Q15700 = target: DLG2_2, Q15700
Chain of DLG2_2, Q15700 (Q15700 189-283): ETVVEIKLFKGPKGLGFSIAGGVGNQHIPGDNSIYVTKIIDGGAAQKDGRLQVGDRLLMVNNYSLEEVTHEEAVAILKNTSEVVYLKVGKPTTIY

SCRIB_3, Q14160 = target: SCRIB_3, Q14160
Chain of SCRIB_3, Q14160 (Q14160 999-1103): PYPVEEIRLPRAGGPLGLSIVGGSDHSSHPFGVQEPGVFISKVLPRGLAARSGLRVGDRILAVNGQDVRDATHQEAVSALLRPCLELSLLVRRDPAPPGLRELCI

PARD3B_1, Q8TEW8 = target: T8, PARD3B_1, Q8TEW8
DLG3_1, Q92796 = target: T9, DLG3_1, Q92796
GRIP1_7, Q9Y3R0 = target: T10, GRIP1_7, Q9Y3R0
DFNB31_3, Q9P202 = target: T11, DFNB31_3, Q9P202
MAGI2_6, Q86UL8 = target: MAGI2_6, Q86UL8
Chain of MAGI2_6, Q86UL8 (Q86UL8 1141-1229): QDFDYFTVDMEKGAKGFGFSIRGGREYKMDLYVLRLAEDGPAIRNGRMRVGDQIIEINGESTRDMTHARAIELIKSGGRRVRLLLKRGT

DLG1_1, Q12959 = target: DLG1_1, Q12959

Row | pKd (MAGI2_3, Q86UL8) | pKd (SCRIB_2, Q14160) | pKd (SIPA1L2, Q9P2F8) | pKd (LAP2, Q96RT1) | pKd (LNX2_2, Q8N448) | pKd (LRRC7, Q96NW7) | pKd (GRIP1_4, Q9Y3R0) | pKd (NOS1, P29475) | pKd (Inadl_1, Q8NI35) | pKd (PDLIM1, O00151) | pKd (AHNAK1, Q09666) | pKd (GRID2IP_1, A4D2P6) | pKd (PCLO, Q9Y6V0) | pKd (NHERF4_2, Q86UT5) | pKd (TJP1_2, Q07157) | pKd (SCRIB_3, Q14160) | pKd (PARD3B_1, Q8TEW8) | pKd (GRIP1_7, Q9Y3R0) | pKd (MAGI2_6, Q86UL8) | pKd (DLG1_1, Q12959) | Binder | also measured
1 | below the threshold | 3.55 | 3.51 | below the threshold | 3.56 | below the threshold | below the threshold | 4.02 | below the threshold | below the threshold | below the threshold | below the threshold | below the threshold | below the threshold | 3.51 | 4.54 | 3.95 | 3.51 | 3.79 | 3.55 | SKSLERATQL [COMMD3, Q9UBI1] | pKd (DLG4_2, P78352): 3.97; pKd (HTRA1, Q92743): 3.89; pKd (MPDZ_10, O75970): below the threshold; pKd (TIAM2, Q8IVF5): 3.88; pKd (DLG2_2, Q15700): 3.83; pKd (DLG3_1, Q92796): 3.72; pKd (DFNB31_3, Q9P202): 4.25
2 | below the threshold | below the threshold | below the threshold | below the threshold | below the threshold | below the threshold | below the threshold | 4.36 | below the threshold | below the threshold | below the threshold | below the threshold | below the threshold | below the threshold | below the threshold | below the threshold | below the threshold | below the threshold | below the threshold | below the threshold | LRYARPADAL [PPP1R3G, B7ZBB8] | pKd (DLG4_2, P78352): below the threshold; pKd (HTRA1, Q92743): 3.67; pKd (MPDZ_10, O75970): below the threshold; pKd (TIAM2, Q8IVF5): below the threshold; pKd (DLG2_2, Q15700): below the threshold; pKd (DLG3_1, Q92796): below the threshold; pKd (DFNB31_3, Q9P202): below the threshold
3 | below the threshold | below the threshold | below the threshold | below the threshold | below the threshold | below the threshold | below the threshold | below the threshold | below the threshold | below the threshold | below the threshold | below the threshold | below the threshold | below the threshold | below the threshold | below the threshold | below the threshold | below the threshold | below the threshold | below the threshold | EYRKDNKVAA [LSM14A, Q8ND56;Q8ND56-2] | pKd (TIAM2, Q8IVF5): 4.1; pKd (DFNB31_3, Q9P202): below the threshold
4 | below the threshold | below the threshold | below the threshold | below the threshold | below the threshold | below the threshold | below the threshold | below the threshold | below the threshold | below the threshold | below the threshold | below the threshold | below the threshold | below the threshold | below the threshold | below the threshold | below the threshold | below the threshold | below the threshold | below the threshold | KSTTRSSSSC [NDE1, Q9NXR1;Q9NXR1-2] | pKd (DLG4_2, P78352): below the threshold; pKd (HTRA1, Q92743): below the threshold; pKd (MPDZ_10, O75970): below the threshold; pKd (DLG2_2, Q15700): below the threshold; pKd (DLG3_1, Q92796): below the threshold
5 | 3.54 | 3.64 | below the threshold | 3.93 | 3.48 | below the threshold | below the threshold | below the threshold | below the threshold | below the threshold | below the threshold | below the threshold | below the threshold | below the threshold | below the threshold | below the threshold | 5.17 | below the threshold | below the threshold | below the threshold | GDHLDRRVVL [VAC14, Q08AM6] | pKd (DLG4_2, P78352): below the threshold; pKd (HTRA1, Q92743): 4.25; pKd (MPDZ_10, O75970): 3.51; pKd (TIAM2, Q8IVF5): below the threshold; pKd (DLG2_2, Q15700): below the threshold; pKd (DLG3_1, Q92796): below the threshold; pKd (DFNB31_3, Q9P202): 3.82
